PMC11533276, “Critical role of ROCK1 in AD pathogenesis via controlling lysosomal biogenesis and acidification” (Translational Neurodegeneration, 2024)

Target: T1, TFEB (purified protein coupled to the SPR chip) (UniProt P19484 1-476)
T1 chain: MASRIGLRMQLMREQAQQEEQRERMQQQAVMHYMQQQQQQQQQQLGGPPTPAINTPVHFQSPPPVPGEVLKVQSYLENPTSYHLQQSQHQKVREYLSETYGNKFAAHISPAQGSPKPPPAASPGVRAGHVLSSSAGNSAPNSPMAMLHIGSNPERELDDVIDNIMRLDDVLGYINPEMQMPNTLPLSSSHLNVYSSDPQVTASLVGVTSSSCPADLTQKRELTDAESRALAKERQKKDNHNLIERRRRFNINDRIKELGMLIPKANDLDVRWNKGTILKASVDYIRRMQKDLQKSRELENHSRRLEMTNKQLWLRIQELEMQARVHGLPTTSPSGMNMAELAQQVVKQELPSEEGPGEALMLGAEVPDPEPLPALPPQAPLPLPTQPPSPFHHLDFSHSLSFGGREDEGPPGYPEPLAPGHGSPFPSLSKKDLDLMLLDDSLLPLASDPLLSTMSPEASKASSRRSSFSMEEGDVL
Experiment: SPR; TFEB immobilised on a CM5 chip by amine coupling; ROCK1 injected at 312.5 to 5000 nM for 90 s; Biacore T200
Conditions: both partners purified

Kd: 1.61 µM
B1: ROCK1 (protein injected in SPR) (enzyme)
chain: STGDSFETRFEKMDNLLRDPKSEVNSDCLLDGLDALVYDLDFPALRKNKNIDNFLSRYKDTINKIRDLRMKAEDYEVVKVIGRGAFGEVQLVRHKSTRKVYAMKLLSKFEMIKRSDSAFFWEERDIMAFANSPWVVQLFYAFQDDRYLYMVMEYMPGGDLVNLMSNYDVPEKWARFYTAEVVLALDAIHSMGFIHRDVKPDNMLLDKSGHLKLADFGTCMKMNKEGMVRCDTAVGTPDYISPEVLKSQGGDGYYGRECDWWSVGVFLYEMLVGDTPFYADSLVGTYSKIMNHKNSLTFPDDNDISKEAKNLICAFLTDREVRLGRNGVEEIKRHLFFKNDQWAWETLRDTVAPVVPDLSSDIDTSNFDDLEEDKGEEETFPIPKAFVGNQLPFVGFTYYSNRRYLSSANPNDNRTSSNADKSLQESLQKTIYKLEEQLHNEMQLKDEMEQKCRTSNIKLDKIMKELDEEGNQRRNLESTVSQIEKEKMLLQHRINEYQRKAEQENEKRRNVENEVSTLKDQLEDLKKVSQNSQLANEKLSQLQKQLEEANDLLRTESDTAVRLRKSHTEMSKSISQLESLNRELQERNRILENSKSQTDKDYYQLQAILEAERRDRGHDSEMIGDLQARITSLQEEVKHLKHNLEKVEGERKEAQDMLNHSEKEKNNLEIDLNYKLKSLQQRLEQEVNEHKVTKARLTDKHQSIEEAKSVAMCEMEKKLKEEREAREKAENRVVQIEKQCSMLDVDLKQSQQKLEHLTGNKERMEDEVKNLTLQLEQESNKRLLLQNELKTQAFEADNLKGLEKQMKQEINTLLEAKRLLEFELAQLTKQYRGNEGQMRELQDQLEAEQYFSTLYKTQVKELKEEIEEKNRENLKKIQELQNEKETLATQLDLAETKAESEQLARGLLEEQYFELTQESKKAASRNRQEITDKDHTVSRLEEANSMLTKDIEILRRENEELTEKMKKAEEEYKLEKEEEISNLKAAFEKNINTERTLKTQAVNKLAEIMNRKDFKIDRKKANTQDLRKKEKENRKLQLELNQEREKFNQMVVKHQKELNDMQAQLVEECAHRNELQMQLASKESDIEQLRAKLLDLSDSTSVASFPSADETDGNLPESRIEGWLSVPNRGNIKRYGWKKQYVVVSSKKILFYNDEQDKEQSNPSMVLDIDKLFHVRPVTQGDVYRAETEEIPKIFQILYANEGECRKDVEMEPVQQAEKTNFQNHKGHEFIPTLYHFPANCDACAKPLWHVFKPPPALECRRCHVKCHRDHLDKKEDLICPCKVSYDVTSARDMLLLACSQDEQKKWVTHLVKKIPKNPPSGFVRASPRTLSTRSTANQSFRKVVKNTSGKTS
